Consider three molecules from patent publication US7160677, “Transcription factor DP-1” (Topotarget UK Limited).

The target of data set [1] is Gal4 activation domain-E2F-1 hybrid protein (pGAD.E2F-1) (yeast) (UniProt P04386). The data set is described as follows: cell-based or functional assay.
For data set [2], the target named is T1, wild-type E2F-1^1-437 (Homo sapiens (Human), UniProt Q01094 1-437, radiolabelled with 35S methionine (in vitro translated form) ; chain 1: radiolabelled with 35S methionine (in vitro translated form); letters unchanged).
T1 construct: Translated in reticulocyte lysate for the pull-down; The same full-length protein was expressed from pE2F-1/pCMV E2F-1 in the transfection assays; also called in vitro transcribed and translated E2F-1 polypeptide; pE2F-1
T1 sequence (Q01094 whole entry): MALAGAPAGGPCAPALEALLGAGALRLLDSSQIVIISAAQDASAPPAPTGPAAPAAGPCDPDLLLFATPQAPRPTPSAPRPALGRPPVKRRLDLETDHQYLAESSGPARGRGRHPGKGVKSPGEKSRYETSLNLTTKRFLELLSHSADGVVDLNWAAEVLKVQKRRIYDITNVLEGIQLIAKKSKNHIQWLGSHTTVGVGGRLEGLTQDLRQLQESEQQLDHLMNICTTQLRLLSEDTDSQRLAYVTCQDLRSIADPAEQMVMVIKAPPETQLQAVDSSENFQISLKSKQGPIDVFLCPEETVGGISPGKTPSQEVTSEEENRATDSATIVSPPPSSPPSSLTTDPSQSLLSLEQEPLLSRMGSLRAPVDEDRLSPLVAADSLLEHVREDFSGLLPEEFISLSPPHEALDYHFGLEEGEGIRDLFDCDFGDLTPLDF
Kind of data set: GST pull-down (glutathione-agarose) of in vitro translated 35S-labelled E2F-1. An excerpt:
DP-1 and E2F-1 were expressed as, and released from, GST fusion proteins as previously described (Girling et al., 1993). About 100-fold excess of the competing binding sites were used in gel retardation assays, with the binding site taken from the adenovirus E2A promoter (−71 to −50). The wild-type E2F-1 coding sequence was transcribed and further translated using reticulocyte lysate (Promega) and radiolabelled with ^35S methionine. In the dimerization assay (FIG. 2d), GST-DP-1 fusion protein was incubated with E2F-1 polypeptide for 30 min at 30° C., collected with glutathione-agarose (Sigma), and washed repeatedly with 0.1% NF40-in PBSA. Bound E2F-1 polypeptide was released by denaturation in SDS sample buffer and resolved in a 10% polyacrylamide gel.
GST fusion proteins, or GST protein along (track 2), were collected with glutathione-agarose beads and bound E2F-1 polypeptide released.

Data set [3] deals with DP-1(59-410)/E2F-1(89-437) heteromer (Mus musculus / Homo sapiens?, UniProt Q08639;Q01094 Q08639:59-410,Q01094:89-437). The data set is described as follows: EMSA; synergistic; anti-E2F-1 supershift, anti-DP-1 inhibits. The following applies: tags: GST on both.
DP-1(59-410)/E2F-1(89-437) heteromer, sequence (Q08639 59-410, chain 1 of 2): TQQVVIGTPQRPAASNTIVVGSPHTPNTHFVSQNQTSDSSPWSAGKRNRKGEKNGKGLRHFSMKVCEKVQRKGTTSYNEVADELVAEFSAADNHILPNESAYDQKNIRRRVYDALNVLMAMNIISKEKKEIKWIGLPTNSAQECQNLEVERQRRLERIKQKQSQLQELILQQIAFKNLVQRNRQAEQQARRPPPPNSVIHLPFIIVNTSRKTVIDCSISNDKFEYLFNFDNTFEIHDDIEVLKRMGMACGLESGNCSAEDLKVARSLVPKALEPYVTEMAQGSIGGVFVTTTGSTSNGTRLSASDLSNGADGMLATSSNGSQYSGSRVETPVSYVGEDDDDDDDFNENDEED
DP-1(59-410)/E2F-1(89-437) heteromer, sequence (Q01094 89-437, chain 2 of 2): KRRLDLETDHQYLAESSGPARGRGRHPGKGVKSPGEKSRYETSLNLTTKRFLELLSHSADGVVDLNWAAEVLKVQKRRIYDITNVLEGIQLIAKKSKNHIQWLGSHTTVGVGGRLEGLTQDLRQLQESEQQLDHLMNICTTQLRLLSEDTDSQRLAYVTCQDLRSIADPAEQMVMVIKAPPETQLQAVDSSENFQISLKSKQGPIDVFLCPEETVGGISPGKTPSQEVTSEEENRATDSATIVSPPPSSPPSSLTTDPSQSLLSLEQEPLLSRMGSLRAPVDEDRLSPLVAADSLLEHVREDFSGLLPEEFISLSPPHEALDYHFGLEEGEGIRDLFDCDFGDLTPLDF
The target in data set [4] is DP-1(84-204)/E2F-1(89-437) heteromer (Mus musculus / Homo sapiens?, UniProt Q08639;Q01094 Q08639:84-204,Q01094:89-437). The data set is described as follows: EMSA; less than with DP-1 84-249. The following applies: tags: DP-1 thrombin-released or GST; E2F-1 GST. As to the method:
(§1) Cell extracts were prepared as previously described (La Thangue et al., 1990). Gel retardation in F9 EC and HeLa cell extracts (about 6.0 µg) in the presence of anti-DP-1 was performed as previously described (Girling et al., 1993), and immunoprecipitation with anti-DP-1 from HeLa cell extracts was performed by standard procedures. The immunoprecipitates were treated with 1% DOC and 1.5% NP40 and the detergent released material assayed for DRTF1/E2F by gel retardation and the presence of E2F-1 by immunoblotting with the anti-E2F-1 monoclonal antibody SQ41 (Kaelin et al., 1992). The anti-DP-1 antibodies, anti-peptide A and anti-peptide 18, have been previously described (Girling et al., 1993). Rabbit anti-E2F-1 antiserum (antiserum 134) was raised against a peptide which represents E2F-1 amino acid sequence 315 to 323. The sequences of the binding sites used to assess DNA binding specificity were derived from the adenovirus E2A promoter (−71 to −50) and were as follows: WT; […] (SEQ ID NO: 7); 62/60, […]; (SEQ ID NO: 8); 63, […] (SEQ ID NO: 9); 64, […] (SEQ ID NO: 10). In FIG. 2a (tracks 1 to 4), the adenovirus E2A promoter (−96 to +68) was used; in all other cases, the distal E2F site in the E2A promoter (sequences −71 to −50) was used. About 100-fold excess of competing binding sites were used in the gel retardation assays.

The target in data set [5] is GST-E2F-1(89-437) (UniProt Q01094 Q01094:89-437). Kind of data set: EMSA. The conditions noted are these: tags: GST.
GST-E2F-1(89-437), sequence (Q01094 89-437, one chain of several): as the sequence (Q01094 89-437, chain 2 of 2) above
Data set [6] concerns the target DP-1(84-249)/E2F-1(89-437) heteromer (Mus musculus / Homo sapiens?, UniProt Q08639;Q01094 Q08639:84-249,Q01094:89-437). The data set is described as follows: EMSA; greater than E2F-1 alone. The following applies: tags: DP-1 thrombin-released or GST; E2F-1 GST. As to the method: as §1, with “assays. […]” for “assays.”

DP-1(84-204)/E2F-1(89-437) heteromer, sequence (Q01094 89-437, one chain of several): as the sequence (Q01094 89-437, chain 2 of 2) above
DP-1(84-249)/E2F-1(89-437) heteromer, sequence (Q01094 89-437, one chain of several): as the sequence (Q01094 89-437, chain 2 of 2) above

In data set [1], “LexA-DP-1 hybrid protein (pLEX.DP-1) (from UniProt P0A7C2 1-202)” displayed an activity of p4xWT CYC1 (E2F site-dependent transcription in yeast, β-galactosidase) of 50 fold and a transcriptional activity of the LexA reporter construct (yeast two-hybrid, β-galactosidase) of 75 fold.

B1: GST-DP-1^84-166 (other)
chain: PNTHFVSQNQTSDSSPWSAGKRNRKGEKNGKGLRHFSMKVCEKVQRKGTTSYNEVADELVAEFSAADNHILPNESAYDQKNIR
notes: Uncleaved GST fusion; not shown: glutathione-S-transferase (GST)
On to B1, for which the binding result in data set [2] was “no binding (tested: about 2 µg GST fusion protein)”.

B2: E2A distal E2F site WT (-71 to -50) (dsDNA)
DNA 1: TAGTTTTCGCGCTTAAATTTGA
DNA 2: TCAAATTTAAGCGCGAAAACTA
On to B2, for which the binding result in data set [3], in data set [4], in data set [5] and in data set [6] was “binds” each time.
